Results published in US20190038707A1.

Assays:
[1] = target: HCN channels (mediating Ih) in CA1 pyramidal neurons of TRIP8b KO mice; experiment: cell-based or functional assay
[2] = target: HCN1, hyperpolarization-activated cyclic nucleotide-gated channel pore-forming subunit 1, endogenous in CA1 pyramidal neurons of TRIP8b KO mice (mouse) (UniProt O88704); experiment: cell-based or functional assay
UniProt O88704, sequence (O88704 whole entry): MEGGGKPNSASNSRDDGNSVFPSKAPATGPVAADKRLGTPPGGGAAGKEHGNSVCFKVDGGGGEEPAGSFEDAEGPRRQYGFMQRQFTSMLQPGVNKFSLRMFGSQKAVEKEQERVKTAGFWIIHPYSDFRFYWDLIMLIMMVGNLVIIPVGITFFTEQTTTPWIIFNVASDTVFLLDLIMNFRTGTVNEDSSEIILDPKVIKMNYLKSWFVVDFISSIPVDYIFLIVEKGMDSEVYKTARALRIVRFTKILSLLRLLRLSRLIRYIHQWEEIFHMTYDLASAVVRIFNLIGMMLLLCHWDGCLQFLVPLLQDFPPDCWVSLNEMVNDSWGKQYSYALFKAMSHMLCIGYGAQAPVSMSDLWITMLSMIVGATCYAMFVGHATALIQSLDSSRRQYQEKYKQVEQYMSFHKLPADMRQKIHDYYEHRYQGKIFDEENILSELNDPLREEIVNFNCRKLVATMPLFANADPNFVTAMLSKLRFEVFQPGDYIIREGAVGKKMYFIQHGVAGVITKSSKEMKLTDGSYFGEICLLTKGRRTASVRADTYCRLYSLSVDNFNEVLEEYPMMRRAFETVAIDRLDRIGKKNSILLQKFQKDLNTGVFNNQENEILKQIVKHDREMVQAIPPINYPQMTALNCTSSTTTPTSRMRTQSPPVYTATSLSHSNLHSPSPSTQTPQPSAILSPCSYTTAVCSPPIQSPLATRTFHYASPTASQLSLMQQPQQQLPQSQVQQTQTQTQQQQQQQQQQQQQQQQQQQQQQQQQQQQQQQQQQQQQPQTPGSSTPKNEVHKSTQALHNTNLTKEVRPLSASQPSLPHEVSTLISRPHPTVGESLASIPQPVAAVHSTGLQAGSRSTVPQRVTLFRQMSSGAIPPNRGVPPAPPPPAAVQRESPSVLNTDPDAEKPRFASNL

Substance	Ih amplitude, somatic voltage clamp recordings, TRIP8b KO mice [1] [pA/pF]	sag ratio (ΔVmax/ΔVsteady-state), whole cell recordings from eGFP positive CA1 pyramidal neurons of TRIP8b KO mice [1]	HCN1 staining in the SLM of CA1, injected hemisphere relative to uninjected hemisphere (immunohistochemistry) (fold of uninjected hemisphere) [2]	Ih amplitude, voltage clamp, TRIP8b KO mice [1] [pA/pF]	sag ratio, somatic whole cell recordings, TRIP8b KO mice [1]	HCN1 staining in the SLM layer of CA1, injected hemisphere scaled by contralateral hemisphere (immunohistochemistry) (fold of uninjected hemisphere) [2]
TRIP8b(1a-4), tetratricopeptide repeat-containing Rab8b interacting protein, isoform comprised of exons 1a, 4 and 5-16, wild type, expressed from AAV-TRIP8b-IRES-eGFP	0.68	1.27	1.52	–	–	–
TRIP8b(1a-4)(Δ58), expressed from AAV-TRIP8b(Δ58)	–	–	–	0.27	1.09	0.98
TRIP8b(Δ58/N13A) double mutant, expressed from AAV-TRIP8b(Δ58/N13A)	–	–	–	–	–	0.99
TRIP8b(1a-4)(TPR3-N13A), expressed from AAV-TRIP8b(N13A)	–	–	–	0.282	1.11	0.78
